Measurements as given in patent US20240417436A1 (BRIGHT PEAK THERAPEUTICS, published 2024).
Where two headings read alike, the source gives them in different places. Bridges are numbered along the chain shown (N, C = ends). Primed or numbered codes have the meaning given here. [ ]: non-standard residue; d: D form. cleavable peptide, 4x polyethylene glycol = not defined here; Ygp = O-(8x polyethylene glycol-amino)-tyrosine; Yn3 = O-(9x polyethylene glycol-azido)-tyrosine; cleavable moiety, PEG9 = not defined here; PEG4′ = 4x polyethylene glycol; PEG9″ = 9x polyethylene glycol; hSer = N[C@@H](CCO)C(=O)O; Nle = CCCC[C@H](N)C(=O)O

T1: IL-2 receptor βγ complex on pan T cells (human, UniProt P14784 27-551; P31785 23-369)
T1 sequence (looked up) 1: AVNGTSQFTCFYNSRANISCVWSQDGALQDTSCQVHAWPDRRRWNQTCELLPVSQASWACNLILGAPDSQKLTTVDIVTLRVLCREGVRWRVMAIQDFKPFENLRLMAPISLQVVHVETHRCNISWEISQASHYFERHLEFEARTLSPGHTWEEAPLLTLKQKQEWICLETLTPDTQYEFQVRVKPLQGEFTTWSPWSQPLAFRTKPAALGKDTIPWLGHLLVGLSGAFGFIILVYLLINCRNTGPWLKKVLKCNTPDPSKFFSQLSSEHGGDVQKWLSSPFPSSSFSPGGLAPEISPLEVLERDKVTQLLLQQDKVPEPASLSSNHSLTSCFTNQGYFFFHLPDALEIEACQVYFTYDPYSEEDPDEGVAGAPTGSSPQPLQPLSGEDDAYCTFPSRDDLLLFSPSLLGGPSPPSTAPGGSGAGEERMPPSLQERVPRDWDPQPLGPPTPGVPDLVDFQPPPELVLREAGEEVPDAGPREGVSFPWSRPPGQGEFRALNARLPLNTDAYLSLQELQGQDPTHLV
T1 sequence (looked up) 2: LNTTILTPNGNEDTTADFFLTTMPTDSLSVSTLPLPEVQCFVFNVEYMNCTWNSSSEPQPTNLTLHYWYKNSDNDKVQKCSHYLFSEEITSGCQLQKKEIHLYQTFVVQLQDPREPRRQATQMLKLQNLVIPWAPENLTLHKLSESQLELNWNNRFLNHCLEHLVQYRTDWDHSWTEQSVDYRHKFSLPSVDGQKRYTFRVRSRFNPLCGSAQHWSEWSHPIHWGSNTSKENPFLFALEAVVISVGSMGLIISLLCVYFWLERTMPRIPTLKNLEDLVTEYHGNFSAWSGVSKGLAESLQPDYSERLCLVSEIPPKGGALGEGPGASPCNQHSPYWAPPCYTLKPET

B1: CMP-159, MMP2 cleaved (ligand)
chain: PLGLAGAPTSSSTKKTQLQLEHLLLDLE[Nle]ILNGINNYKNPKLTR[Nle]L[hSer][Yn3]KF[Ygp][Nle]PKKATELKHLQCLEEELKPLEEVL[hSer]LAQSKNFHLRPRDLISNINVIVLELKGSETTF[hSer]CEYADETATIVEFLNRWITFSQSIISTLT
modifications: not fully specified (bridges); ends and bridges not checked; also: cleaved by MMP2 (macrocycle opened), cut site not given here
B2: CMP-164, MMP2 cleaved (ligand)
chain: APTSSSTKKTQLQLEHLLLDLQKILNGINNYKNPKLTR[Nle]L[hSer][Yn3]KF[Ygp][Nle]PKKATELKHLQCLEEELKPLEEVL[hSer]LAQSKNFHLRPRDLISNINVIVLELKGSETTF[hSer]CEYADETATIVEFLNRWITFSQSIISTLT
modifications: not fully specified (residue 23, N-terminus); ends and bridges not checked; also: macrocycle (Lys23 side chain - cleavable peptide - glutaryl - Ala1) cut by MMP2, cut site not given here
B3: CMP-161, MMP2 cleaved (ligand)
chain: PLGLAGAPTSSSTKKTQLQLEHLLLDLQ[Nle]ILEGINNYKNPKLTR[Nle]L[hSer][Yn3]KF[Ygp][Nle]PKKATELKHLQCLEEELKPLEEVL[hSer]LAQSKNFHLRPRDLISNINVIVLELKGSETTF[hSer]CEYADETATIVEFLNRWITFSQSIISTLT
modifications: not fully specified; ends and bridges not checked; also: before cut, residues 1..32 linked via PEG9 (Glu32 side chain)
B4: CMP-158, MMP2 cleaved (ligand)
chain: APTSSSTKKTQLQLEHLLLDLE[Nle]ILNGINNYKNPKLTR[Nle]L[hSer][Yn3]KF[Ygp][Nle]PKKATELKHLQCLEEELKPLEEVL[hSer]LAQSKNFHLRPRDLISNINVIVLELKGSETTF[hSer]CEYADETATIVEFLNRWITFSQSIISTLT
modifications: also: MMP2-cleaved cleavable peptide, macrocycle opened, cut site not given here, remnants on Glu22 and N-terminus unspecified
B5: CMP-169 (ligand)
chain: APTSSSTKKTQLQLEHLLLDLQEILNGINNYKNPKLTR[Nle]L[hSer][Yn3]KF[Ygp][Nle]PKKATELKHLQCLEEELKPLEEVL[hSer]LAQSKNFHLRPRDLISNINVIVLELKGSETTF[hSer]CEYADETATIVEFLNRWITFSQSIISTLT
modifications: bridge 9-23; not fully specified (residue 9, bridges); ends not checked; also: cleavable peptide of the bridge not defined
B6: CMP-158 (ligand)
chain: APTSSSTKKTQLQLEHLLLDLE[Nle]ILNGINNYKNPKLTR[Nle]L[hSer][Yn3]KF[Ygp][Nle]PKKATELKHLQCLEEELKPLEEVL[hSer]LAQSKNFHLRPRDLISNINVIVLELKGSETTF[hSer]CEYADETATIVEFLNRWITFSQSIISTLT
modifications: linker N-22 via cleavable peptide, 4x polyethylene glycol; not fully specified; reading uncertain
B7: CMP-160, MMP2 cleaved (ligand)
chain: APTSSSTKKTQLQLEHLLLDLQ[Nle]ILEGINNYKNPKLTR[Nle]L[hSer][Yn3]KF[Ygp][Nle]PKKATELKHLQCLEEELKPLEEVL[hSer]LAQSKNFHLRPRDLISNINVIVLELKGSETTF[hSer]CEYADETATIVEFLNRWITFSQSIISTLT
modifications: ends and bridges not checked; also: cleavable moiety between Glu26 side chain and N-terminus (via PEG9) cut by MMP2, macrocycle opened, cut site not given here
B8: CMP-163, MMP2 cleaved (ligand)
chain: APTSSSTKKTQLQLEHLLLDLQKILNGINNYKNPKLTR[Nle]L[hSer][Yn3]KF[Ygp][Nle]PKKATELKHLQCLEEELKPLEEVL[hSer]LAQSKNFHLRPRDLISNINVIVLELKGSETTF[hSer]CEYADETATIVEFLNRWITFSQSIISTLT
modifications: not fully specified (residue 23, N-terminus); ends and bridges not checked; also: macrocycle (Lys23 side chain - cleavable peptide - PEG4 - glutaryl - Ala1) cut by MMP2, cut site not given here
B9: CMP-157, MMP2 cleaved (ligand)
chain: PLGLAGAPTSSSTKKTQLQLEHLLEDLQ[Nle]ILNGINNYKNPKLTR[Nle]L[hSer][Yn3]KF[Ygp][Nle]PKKATELKHLQCLEEELKPLEEVL[hSer]LAQSKNFHLRPRDLISNINVIVLELKGSETTF[hSer]CEYADETATIVEFLNRWITFSQSIISTLT
modifications: also: macrocycle (4x PEG linker between residue 1 and Glu25 side chain) opened by MMP2 cleavage within PLGLAG, cut site not given here
B10: CMP-162 (ligand)
chain: APTSSSTKKTQLQLEHLLLDLQKILNGINNYKNPKLTR[Nle]L[hSer][Yn3]KF[Ygp][Nle]PKKATELKHLQCLEEELKPLEEVL[hSer]LAQSKNFHLRPRDLISNINVIVLELKGSETTF[hSer]CEYADETATIVEFLNRWITFSQSIISTLT
modifications: not fully specified (residue 23); ends and bridges not checked; also: cleavable moiety on Lys23 side chain, structure not given here
B11: CMP-162, MMP2 cleaved (ligand)
chain: APTSSSTKKTQLQLEHLLLDLQKILNGINNYKNPKLTR[Nle]L[hSer][Yn3]KF[Ygp][Nle]PKKATELKHLQCLEEELKPLEEVL[hSer]LAQSKNFHLRPRDLISNINVIVLELKGSETTF[hSer]CEYADETATIVEFLNRWITFSQSIISTLT
modifications: not fully specified (residue 23); ends and bridges not checked; also: cleavable peptide on Lys23 cut by MMP2, remnant stays attached, cut site not given here
B12: CMP-159 (ligand)
chain: PLGLAGAPTSSSTKKTQLQLEHLLLDLE[Nle]ILNGINNYKNPKLTR[Nle]L[hSer][Yn3]KF[Ygp][Nle]PKKATELKHLQCLEEELKPLEEVL[hSer]LAQSKNFHLRPRDLISNINVIVLELKGSETTF[hSer]CEYADETATIVEFLNRWITFSQSIISTLT
modifications: linker N-28 via PEG4′; ends not checked
B13: CMP-161 (ligand)
chain: PLGLAGAPTSSSTKKTQLQLEHLLLDLQ[Nle]ILEGINNYKNPKLTR[Nle]L[hSer][Yn3]KF[Ygp][Nle]PKKATELKHLQCLEEELKPLEEVL[hSer]LAQSKNFHLRPRDLISNINVIVLELKGSETTF[hSer]CEYADETATIVEFLNRWITFSQSIISTLT
modifications: linker N-32 via PEG9″; ends not checked
B14: CMP-160 (ligand)
chain: APTSSSTKKTQLQLEHLLLDLQ[Nle]ILEGINNYKNPKLTR[Nle]L[hSer][Yn3]KF[Ygp][Nle]PKKATELKHLQCLEEELKPLEEVL[hSer]LAQSKNFHLRPRDLISNINVIVLELKGSETTF[hSer]CEYADETATIVEFLNRWITFSQSIISTLT
modifications: linker N-26 via cleavable moiety, PEG9; ends not checked; also: cleavable moiety sequence not given here

Tests used:
[1] = target: T1, IL-2 receptor βγ complex on pan T cells; experiment: cell-based or functional assay
[2] = target: T1, IL-2 receptor βγ complex on pan T cells; experiment: cell-based or functional assay; remark: listed apart in the source

Binder | Average EC50, pSTAT5 assay in pan T cells, MMP2 cleaved molecule [1] [nM] | Average EC50, pSTAT5 assay in pan T cells, intact molecule [1] [nM] | further results
B1 | 2.27 |  | 
B2 |  |  | Average EC50, pSTAT5 assay in pan T cells, MMP2 cleaved molecule [2]: 0.61 nM
B3 | 3.59 |  | 
B4 | 1.95 |  | 
B5 |  |  | Average EC50, pSTAT5 assay in pan T cells, intact molecule [2]: 53.4 nM
B6 |  | 36.6 | 
B7 | 2.21 |  | 
B8 |  |  | Average EC50, pSTAT5 assay in pan T cells, MMP2 cleaved molecule [2]: 0.76 nM
B9 | 10 |  | 
B10 |  | 2.79 | 
B11 | 0.758 |  | 
B12 |  | 35.5 | 
B13 |  | 29.4 | 
B14 |  | 27.8 | 
